Data on 13 molecules can be found in paper PMC7335425 (Cell, 2020).

Where a chain is given by its changes, count along the chain named. Names and notes keep the numbering of the source.

Holding throughout (experiment): negative stain EM
The target in data set [1] is LetB ΔPLL2 mutant, TM helix deleted (E. coli) (UniProt P76272).
For data set [2], the target named is LetB ΔPLL3 mutant, TM helix deleted (E. coli) (UniProt P76272).
Data set [3] addresses LetB six-ring truncation mutant (ring 6 removed), TM helix deleted (E. coli) (UniProt P76272).
Data set [4] addresses MCE protein with six MCE domains from Pseudomonas aeruginosa (Pseudomonas aeruginosa).
The data set “negative stain EM” deals with the molecule itself.

What is called stoichiometry N is a count of units in the complex or per binding partner. In the case of “LetB ΔPLL2 mutant, TM helix deleted (from UniProt P76272 43-877) (domain or fragment)”, the stoichiometry N in data set [1] is 6.
“LetB ΔPLL3 mutant, TM helix deleted (from UniProt P76272 43-877) (domain or fragment)”: in data set [2], the stoichiometry N turned out to be 6.
Regarding “LetB six-ring truncation mutant (ring 6 removed), TM helix deleted (from UniProt P76272 43-877) (domain or fragment)”, the stoichiometry N in data set [3] was 6.
In data set [4], “MCE protein with six MCE domains from Pseudomonas aeruginosa (natural protein)” had a stoichiometry N of 6.

B1: LetB two-ring truncation mutant, TM helix deleted (domain or fragment)
chain: QDRGNTVTIDFMSADGIVPGRTPVRYQGVEVGTVQDISLSDDLRKIEVKVSIKSDMKDALREETQFWLVTPKASLAGVSGLDALVGGNYIGMMPGKGKEQDHFVALDTQPKYRLDNGDGLSIIVEAPEAGSLGIGTPVLFRGLEVGTVTGMTLGTLSDRVMIAMRISKRYQHLVRNNSVFWLASGYSLDFGLTGGVVKTGTFNQFIRGGIAFATPPGTPLAPKAQEGKHFLLQESEPKEWREWGTALPK
Turning to B1, the “stoichiometry N” value in “negative stain EM” worked out at 6.

B2: LetB three-ring truncation mutant (rings 2, 3, 4 and 5 removed), TM helix deleted (domain or fragment)
chain: QDRGNTVTIDFMSADGIVPGRTPVRYQGVEVGTVQDISLSDDLRKIEVKVSIKSDMKDALREETQFWLVTPKASLAGVSGLDALVGGNYIGMMPGKGKEQDHFVALDTQPKYRLDNGGGQITLHAFDAGKLAVGMPIRYLGIDIGQIQTLDLITARNEVQAKAVLYPEYVQTFARGGTRFSVVTPQISAAGVEHLDTILQPYINVEPGRGNPRRDFELQEATITDSRYLDGLSIIVEAPEAGSLGIGTPVLFRGLEVGTVTGMTLGTLSDRVMIAMRISKRYQHLVRNNSVFWLASGYSLDFGLTGGVVKTGTFNQFIRGGIAFATPPGTPLAPKAQEGKHFLLQESEPKEWREWGTALPK
Regarding B2, the “stoichiometry N” value in the data set “negative stain EM” turned out to be 6.

B3: LetB L243N, TM helix deleted (domain or fragment, E. coli, UniProt P76272 43-877, looked up)
chain: QDRGNTVTIDFMSADGIVPGRTPVRYQGVEVGTVQDISLSDDLRKIEVKVSIKSDMKDALREETQFWLVTPKASLAGVSGLDALVGGNYIGMMPGKGKEQDHFVALDTQPKYRLDNGDLMIHLQAPDLGSLNSGSLVYFRKIPVGKVYDYAINPNKQGVVIDVLIERRFTDLVKKGSRFWNVSGVDANVSISGAKVKLESNAALVNGAIAFDSPEESKPAEAEDTFGLYEDLAHSQRGVIIKLELPSGAGLTADSTPLMYQGLEVGQLTKLDLNPGGKVTGEMTVDPSVVTLLRENTRIELRNPKLSLSDANLSALLTGKTFELVPGDGEPRKEFVVVPGEKALLHEPDVLTLTLTAPESYGIDAGQPLILHGVQVGQVIDRKLTSKGVTFTVAIEPQHRELVKGDSKFVVNSRVDVKVGLDGVEFLGASASEWINGGIRILPGDKGEMKASYPLYANLEKALENSLSDLPTTTVSLSAETLPDVQAGSVVLYRKFEVGEVITVRPRANAFDIDLHIKPEYRNLLTSNSVFWAEGGAKVQLNGSGLTVQASPLSRALKGAISFDNLSGASASQRKGDKRILYASETAARAVGGQITLHAFDAGKLAVGMPIRYLGIDIGQIQTLDLITARNEVQAKAVLYPEYVQTFARGGTRFSVVTPQISAAGVEHLDTILQPYINVEPGRGNPRRDFELQEATITDSRYLDGLSIIVEAPEAGSLGIGTPVLFRGLEVGTVTGMTLGTLSDRVMIAMRISKRYQHLVRNNSVFWLASGYSLDFGLTGGVVKTGTFNQFIRGGIAFATPPGTPLAPKAQEGKHFLLQESEPKEWREWGTALPK
For the molecule B3, the “stoichiometry N” value in “negative stain EM” is 6.

B4: LetB L246N, TM helix deleted (domain or fragment, E. coli, UniProt P76272 43-877, looked up)
chain: B3 chain with N201L, L204N
Regarding B4, in “negative stain EM”, the “stoichiometry N” value is 6.

B5: LetB L359N, TM helix deleted (domain or fragment, E. coli, UniProt P76272 43-877, looked up)
chain: B3 chain with N201L, L317N
Consider B5, for which the “stoichiometry N” value in the data set “negative stain EM” was found to be 6.

B6: LetB V247N, TM helix deleted (domain or fragment, E. coli, UniProt P76272 43-877, looked up)
chain: B3 chain with N201L, V205N
Take B6: the “stoichiometry N” value in the data set “negative stain EM” amounted to 6.

B7: LetB L355N, TM helix deleted (domain or fragment, E. coli, UniProt P76272 43-877, looked up)
chain: B3 chain with N201L, L313N
As for B7, the “stoichiometry N” value in the data set “negative stain EM” was 6.

B8: LetB L358N, TM helix deleted (domain or fragment, E. coli, UniProt P76272 43-877, looked up)
chain: B3 chain with N201L, L316N
In the case of B8, in the data set “negative stain EM”, the “stoichiometry N” value amounted to 6.

B9: LetB four-ring mutant 1–3-4–7, TM helix deleted (domain or fragment)
chain: QDRGNTVTIDFMSADGIVPGRTPVRYQGVEVGTVQDISLSDDLRKIEVKVSIKSDMKDALREETQFWLVTPKASLAGVSGLDALVGGNYIGMMPGKGKEQDHFVALDTQPKYRLDNGRGVIIKLELPSGAGLTADSTPLMYQGLEVGQLTKLDLNPGGKVTGEMTVDPSVVTLLRENTRIELRNPKLSLSDANLSALLTGKTFELVPGDGEPRKEFVVVPGEKALLHEPDVLTLTLTAPESYGIDAGQPLILHGVQVGQVIDRKLTSKGVTFTVAIEPQHRELVKGDSKFVVNSRVDVKVGLDGVEFLGASASEWINGGIRILPGDKGEMKASYPLYANLEKALENSLSDLPTDGLSIIVEAPEAGSLGIGTPVLFRGLEVGTVTGMTLGTLSDRVMIAMRISKRYQHLVRNNSVFWLASGYSLDFGLTGGVVKTGTFNQFIRGGIAFATPPGTPLAPKAQEGKHFLLQESEPKEWREWGTALPK
On to B9, for which the “stoichiometry N” value in “negative stain EM” was 6.
